{"source": "paper PMC2581932", "about": "(Cell, 2008)", "binders": {"B1": {"name": "Pyrococcus furiosus HerA (enzyme, UniProt Q8U1P0 1-551, looked up)", "chain": "MEEFVGIVRGEASFTSYEFSINPSANVSFGEFVVTKNRDGDLVLGTVRHVKNVNWLLSSVKSNFNSLALDIEEYGESLGENEEVVATVRILGKIEGNELVPNRVPIRNGEYVYKASDDLLQMIYGNDGIEIGTLLLRPNVRIKLDVNELVSRHFAVLAVTGAGKSNAVAVIIKGIVEDVGGTVVVLDPHGDYVNLRLPETGIDLVNIIDGKIRIEDLDPEELADLIGISSSAQIQRHFLSLAWETVKHKNQSLGGESLLEALLDLLNEWISRKTIKYWSEKEGRMKSEDLKSERIETIRGIIFRIRRFLRNYGNIVTSENLVAAIKPGMVNVIDLSPLDENQMKVVVGKFLEAVFEKRVEYEMARKRFEKETSKKKRDEYEEIMTEIESKYPALAYPILVIVEEAHIFAPQGEENDAMRIMGRIAREGRKFGVGLGVVSQRPSKLNEDILSQMNTKIILRIVNPRDQDYVLKASEQLSKDLMDDIAGLGKGEAVIVGQAIKLPALVRIYNFKELRGKAGTGQYGGEDIGILDRWNKMKRNMVNSLDIDIDF"}, "B2": {"name": "Pyrococcus furiosus NurA (enzyme, UniProt Q8U1N8 1-451, looked up)", "chain": "MRLLSKQSIERITKILLDELENVRENEQIRNIINSWKPLPSPEKSSIYAVDGSRSVSRLSGTVIYFLSALAVGSGKQLRLSYANAIKSNYGTSDQIVRMQMETLENMLGYLAYRKLEGEKRAILMDGTLTGSLVRPPVYPEDIRSLNVMRALIGESDFENLLNEFLEKLRDHYRKVEEHLEKNGNYDSPILTDNVVEKLRKKYIDTKVIAYGSGKVKVKIPRKALGYSPRVIPIEVLESSRGKSVDELLQELDEEKVELYLGKDDIYDALHMTLSYIEYLYSIDKLLEVKNLAYIAKSFYTKTLARTLGVEIVDTALLDAVIRTLIGHEKEGYLEIEHAVVPPKWSFPDFLLSKFRNIEKLIDKGIHLAYVRFEQGDVIYMLQSTTNIEKILPLILHHKAGGYLRPLQLAHHGVKISYKEARHTLEALINALRNRDPALKIFVKYGRSPLE"}}, "key": {"SEC": {"biological_target": "the molecule itself", "assay": "SEC"}, "Pyrococcus furiosus HerA": {"biological_target": "B1", "assay": "SEC"}}}
{"binder": "B1", "values": [{"measurement": "binding result", "setting": "SEC", "value": "binds"}]}
{"binder": "B2", "values": [{"measurement": "stoichiometry N", "setting": "Pyrococcus furiosus HerA", "value": "1 to 3 NurA monomers per HerA hexamer"}]}
